Assay results as given in patent US20240325561A1 (Seagen, published 2024).

T1: CD19 (UniProt P15391 20-556, limits assumed)
T1 sequence (looked up): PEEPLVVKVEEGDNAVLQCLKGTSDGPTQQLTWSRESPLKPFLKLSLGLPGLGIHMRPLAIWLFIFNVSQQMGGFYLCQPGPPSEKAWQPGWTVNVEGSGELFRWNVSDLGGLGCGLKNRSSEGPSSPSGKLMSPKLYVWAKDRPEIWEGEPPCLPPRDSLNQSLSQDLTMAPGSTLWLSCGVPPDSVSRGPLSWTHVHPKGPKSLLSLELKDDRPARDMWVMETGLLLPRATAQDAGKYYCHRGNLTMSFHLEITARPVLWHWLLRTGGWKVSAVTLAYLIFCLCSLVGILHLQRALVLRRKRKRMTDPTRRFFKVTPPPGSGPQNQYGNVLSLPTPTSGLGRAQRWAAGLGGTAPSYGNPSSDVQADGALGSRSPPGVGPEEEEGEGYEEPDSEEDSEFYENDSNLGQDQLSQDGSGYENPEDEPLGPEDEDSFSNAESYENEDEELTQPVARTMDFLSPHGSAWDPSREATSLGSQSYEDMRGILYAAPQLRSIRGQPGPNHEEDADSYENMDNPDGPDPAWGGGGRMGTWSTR


Legend:
Test in all cases: cell-based or functional assay
[1] = target: transferrin receptor (UniProt P02786)
transferrin receptor, sequence (P02786 whole entry): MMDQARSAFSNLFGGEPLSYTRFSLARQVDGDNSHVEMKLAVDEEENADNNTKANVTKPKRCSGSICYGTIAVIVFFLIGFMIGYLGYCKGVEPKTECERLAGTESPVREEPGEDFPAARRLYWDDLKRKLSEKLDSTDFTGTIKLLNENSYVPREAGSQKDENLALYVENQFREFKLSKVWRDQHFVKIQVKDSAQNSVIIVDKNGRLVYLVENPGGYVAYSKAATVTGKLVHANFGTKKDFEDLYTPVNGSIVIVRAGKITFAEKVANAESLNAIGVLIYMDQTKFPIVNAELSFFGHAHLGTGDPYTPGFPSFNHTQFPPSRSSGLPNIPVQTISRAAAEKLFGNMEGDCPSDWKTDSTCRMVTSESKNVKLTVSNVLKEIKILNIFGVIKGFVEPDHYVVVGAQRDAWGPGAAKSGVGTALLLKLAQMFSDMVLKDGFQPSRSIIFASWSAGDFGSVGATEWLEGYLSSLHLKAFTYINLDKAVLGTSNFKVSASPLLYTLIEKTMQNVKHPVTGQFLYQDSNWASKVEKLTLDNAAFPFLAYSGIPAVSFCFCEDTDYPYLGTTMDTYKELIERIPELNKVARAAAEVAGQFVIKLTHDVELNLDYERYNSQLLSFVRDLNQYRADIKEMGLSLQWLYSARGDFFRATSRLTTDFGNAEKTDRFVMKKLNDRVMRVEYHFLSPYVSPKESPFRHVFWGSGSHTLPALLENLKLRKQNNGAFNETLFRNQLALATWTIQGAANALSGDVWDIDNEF

[2] = target: T1, CD19
[3] = target: T1, CD19; remark: listed apart in the source

Molecule	IC50, cytotoxicity, colorectal cell line HT-29 (TfR copy number 23K) [1] [µM]	IC50, cytotoxicity, melanoma cell line SK-MEL-5 (TfR copy number 21K) [1] [µM]	IC50, in vitro cytotoxicity, RL cells [2] [ng/mL]	IC50, in vitro cytotoxicity, Ramos cells [2] [ng/mL]	IC50, in vitro cytotoxicity, SU-DHL-4 cells [2] [ng/mL]	IC50, in vitro cytotoxicity, WSU-DLCL-2 cells [2] [ng/mL]	fold improvement in cytotoxicity against the 8-load conjugate, Raj cells [3] [fold]	fold improvement in cytotoxicity against the 8-load conjugate, Ramos cells [3] [fold]
8-load anti-transferrin receptor ADC (cOKT9) having -X-D of MDpr-PABA(gluc)-Camptothecin (antibody)	> 1	> 1	–	–	–	–	–	–
hBU12-14 (antibody, V domains shown, antibody carries drug-linker 14 (MDpr-glucuronide-MMAE, no PEG), 8 drugs per antibody) VH: QVQLQESGPGLVKPSQTLSLTCTVSGGSISTSGMGVGWIRQHPGKGLEWIGHIWWDDDKRYNPALKSRVTISVDTSKNQFSLKLSSVTAADTAVYYCARMELWSYYFDYWGQGTLVTVSS VL: EIVLTQSPATLSLSPGERATLSCSASSSVSYMHWYQQKPGQAPRLLIYDTSKLASGIPARFSGSGSGTDFTLTISSLEPEDVAVYYCFQGSVYPFTFGQGTKLEIKR	–	–	61	2	22	5	–	–
hBU12-18 (antibody, V domains shown, antibody carries drug-linker 18 (MDpr-Lys(PEG8)-glucuronide-MMAE), 8 drugs per antibody) VH: QVQLQESGPGLVKPSQTLSLTCTVSGGSISTSGMGVGWIRQHPGKGLEWIGHIWWDDDKRYNPALKSRVTISVDTSKNQFSLKLSSVTAADTAVYYCARMELWSYYFDYWGQGTLVTVSS VL: EIVLTQSPATLSLSPGERATLSCSASSSVSYMHWYQQKPGQAPRLLIYDTSKLASGIPARFSGSGSGTDFTLTISSLEPEDVAVYYCFQGSVYPFTFGQGTKLEIKR	–	–	> 1000	2	16	211	–	–
hBU12-16 (antibody, V domains shown, antibody carries drug-linker 16 (MDpr-Lys(PEG24)-glucuronide-MMAE), 8 drugs per antibody) VH: QVQLQESGPGLVKPSQTLSLTCTVSGGSISTSGMGVGWIRQHPGKGLEWIGHIWWDDDKRYNPALKSRVTISVDTSKNQFSLKLSSVTAADTAVYYCARMELWSYYFDYWGQGTLVTVSS VL: EIVLTQSPATLSLSPGERATLSCSASSSVSYMHWYQQKPGQAPRLLIYDTSKLASGIPARFSGSGSGTDFTLTISSLEPEDVAVYYCFQGSVYPFTFGQGTKLEIKR	–	–	> 1000	4	> 1000	3	–	–
hBU12-43 (antibody, V domains shown, antibody carries drug-linker 43 (MDpr-Lys(PEG2)-glucuronide-MMAE), 8 drugs per antibody) VH: QVQLQESGPGLVKPSQTLSLTCTVSGGSISTSGMGVGWIRQHPGKGLEWIGHIWWDDDKRYNPALKSRVTISVDTSKNQFSLKLSSVTAADTAVYYCARMELWSYYFDYWGQGTLVTVSS VL: EIVLTQSPATLSLSPGERATLSCSASSSVSYMHWYQQKPGQAPRLLIYDTSKLASGIPARFSGSGSGTDFTLTISSLEPEDVAVYYCFQGSVYPFTFGQGTKLEIKR	–	–	229	2	> 1000	12	–	–
hBU12-19 (antibody, V domains shown, antibody carries drug-linker 19 (MDpr-Lys(PEG4[PEG4]3)-glucuronide-MMAE, branched PEG), 8 drugs per antibody) VH: QVQLQESGPGLVKPSQTLSLTCTVSGGSISTSGMGVGWIRQHPGKGLEWIGHIWWDDDKRYNPALKSRVTISVDTSKNQFSLKLSSVTAADTAVYYCARMELWSYYFDYWGQGTLVTVSS VL: EIVLTQSPATLSLSPGERATLSCSASSSVSYMHWYQQKPGQAPRLLIYDTSKLASGIPARFSGSGSGTDFTLTISSLEPEDVAVYYCFQGSVYPFTFGQGTKLEIKR	–	–	> 1000	2	> 1000	247	–	–
hBU12-42 (antibody, V domains shown, antibody carries drug-linker 42 (MDpr-Lys(PEG4)-glucuronide-MMAE), 8 drugs per antibody) VH: QVQLQESGPGLVKPSQTLSLTCTVSGGSISTSGMGVGWIRQHPGKGLEWIGHIWWDDDKRYNPALKSRVTISVDTSKNQFSLKLSSVTAADTAVYYCARMELWSYYFDYWGQGTLVTVSS VL: EIVLTQSPATLSLSPGERATLSCSASSSVSYMHWYQQKPGQAPRLLIYDTSKLASGIPARFSGSGSGTDFTLTISSLEPEDVAVYYCFQGSVYPFTFGQGTKLEIKR	–	–	> 1000	3	> 1000	5	–	–
hBU12-17 (antibody, V domains shown, antibody carries drug-linker 17 (MDpr-Lys(PEG12)-glucuronide-MMAE), 8 drugs per antibody) VH: QVQLQESGPGLVKPSQTLSLTCTVSGGSISTSGMGVGWIRQHPGKGLEWIGHIWWDDDKRYNPALKSRVTISVDTSKNQFSLKLSSVTAADTAVYYCARMELWSYYFDYWGQGTLVTVSS VL: EIVLTQSPATLSLSPGERATLSCSASSSVSYMHWYQQKPGQAPRLLIYDTSKLASGIPARFSGSGSGTDFTLTISSLEPEDVAVYYCFQGSVYPFTFGQGTKLEIKR	–	–	> 1000	2	> 1000	129	–	–
hBU12 32-load conjugate having the -X-D moiety of MDpr-PAB(gluc)-Camptothecin (antibody, V domains shown, antibody carries PEGylated multiplexed scaffold C with MDpr-PAB(gluc)-Camptothecin, 32 drugs per antibody) VH: QVQLQESGPGLVKPSQTLSLTCTVSGGSISTSGMGVGWIRQHPGKGLEWIGHIWWDDDKRYNPALKSRVTISVDTSKNQFSLKLSSVTAADTAVYYCARMELWSYYFDYWGQGTLVTVSS VL: EIVLTQSPATLSLSPGERATLSCSASSSVSYMHWYQQKPGQAPRLLIYDTSKLASGIPARFSGSGSGTDFTLTISSLEPEDVAVYYCFQGSVYPFTFGQGTKLEIKR	–	–	–	–	–	–	> 5	> 5
